Source: patent CN112225809A

Target: hPD1/Fc of human IgG1 (fluorescently labelled) (human) (UniProt Q15116)
Experiment: flow cytometry blocking assay: 100 ng hPD-1/hFc-FITC and antibody on SPC-A1-PDL1 cells

Chain of UniProt Q15116 (Q15116 25-167 limits assumed): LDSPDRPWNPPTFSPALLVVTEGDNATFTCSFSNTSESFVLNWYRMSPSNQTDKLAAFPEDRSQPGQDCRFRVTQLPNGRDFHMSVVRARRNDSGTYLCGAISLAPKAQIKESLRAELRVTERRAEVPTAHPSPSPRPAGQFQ

B1: hUM1-30 (antibody, human IgG4 S228P, kappa, V domains shown)
VH: EVQLVESGGGLVQPGGSLRLSCAASGFTFSTYGMSWVRQAPGKGLEWVSTISGGGRYTYYPDSVKGRFTISRDNSKNTLYLQMNSLRAEDTAVYYCARQKGTTWFAHWGQGTLVTVSS
VL: DIQMTQSPSSLSASVGDRVTITCRASESVDDNGISFMNWFQQKPGKAPKLLIYAASNQGSGVPSRFSGSGSGTDFTLTISSLQPEDFATYYCQQSKEVPWTFGQGTKVEIKR
  amount of antibody that blocks the binding of PD-1 to PD-L1: 1.6 µg
